Consider two molecules from paper PMC3030633 (Journal of molecular biology, 2010).

Assay [1] addresses the histone peptide containing H3K4me3. Briefly: ITC + fluorescence polarisation.
Assay [2] has as its target PHF2 (1-451), containing both the PHD and Jumonji domains (human, UniProt O75151 1-451). Briefly: fluorescence polarisation. Background: Fluorescence polarisation rises when a labelled molecule tumbles more slowly, as on binding a larger partner.

No end group written: not given here. fluorescein = fluorescein label on the C-terminus of the peptide; Me3 = trimethyl-lysine

Sequence of PHF2 (1-451), containing both the PHD and Jumonji domains (human, UniProt O75151 1-451) (O75151 1-451): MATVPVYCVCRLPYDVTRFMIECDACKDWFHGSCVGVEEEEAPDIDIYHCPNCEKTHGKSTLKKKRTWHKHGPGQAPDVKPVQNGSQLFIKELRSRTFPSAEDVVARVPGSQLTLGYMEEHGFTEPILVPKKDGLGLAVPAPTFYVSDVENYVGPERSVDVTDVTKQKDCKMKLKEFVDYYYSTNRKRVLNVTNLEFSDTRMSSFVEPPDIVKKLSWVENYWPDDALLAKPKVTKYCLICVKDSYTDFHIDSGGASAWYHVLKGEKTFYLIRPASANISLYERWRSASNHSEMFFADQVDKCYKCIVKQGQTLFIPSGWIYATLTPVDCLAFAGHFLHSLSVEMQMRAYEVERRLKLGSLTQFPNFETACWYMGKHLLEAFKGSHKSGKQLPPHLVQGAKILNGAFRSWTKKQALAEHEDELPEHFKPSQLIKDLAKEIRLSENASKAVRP

On to “PHF2 (1-451), containing both the PHD and Jumonji domains (from UniProt O75151 1-451) (domain or fragment)”, for which the Kd in assay [1] lay in the range of 230 to 270 nM.

B1: H3(1-15)K4me3 peptide, C-terminal fluoresceinated (peptide, UniProt P68431 2-16, looked up)
peptide: ARTK(Me3)QTARKSTGGKA-fluorescein
As for B1, in assay [2], the binding result is “binds”.

For orientation: Kd means the free concentration of one partner at which half of the binding sites on the other are occupied at equilibrium, for simple one-to-one binding.
